Literature values, collected in patent publication US7266483B2, “System and methods for optimized drug delivery and progression of diseased and normal cells” (Optimata Ltd., priority 2000, dated 2007).

B1: G-CSF: Granulocyte-Colony Stimulating Factor; generates an increase in blood Neutrophil levels (protein, UniProt P09919 31-207, looked up)
Granulocyte …: TPLGPASSLPQSFLLKCLEQVRKIQGDGAALQEKLVSECATYKLCHPEELVLLGHSLGIPWAPLSSCPSQALQLAGCLSQLHSGLFLYQGLLQALEGISPELGPTLDTLQLDVADFATTIWQQMEELGMAPALQPTQGAMPAFASAFQRRAGGVLVASHLQSFLEVSYRVLRHLAQP

What was measured:
[1] = modeled as exponential distribution, held constant
post mitotic compartment = conditions: counts made on day 5 after G-CSF administration; noted by Price
[2] = average model parameter calculated from published data

Row | Molecule | a, TPO-clearing ability of the receptors [2] | f, coefficient of non-specific TPO clearance [2] [h⁻¹] | relation coefficient of initial maximum TPO blood concentration (xi) to administered intravenous (IV) dose (s) (linear relation, xi=0.0167·si) | half-life of G-CSF in the blood [1] [h] | number of cells in the post mitotic compartment following administration of G-CSF (post mitotic compartment)
1 | TPO: Thrombopoiesis-controlling cytokine, glycoprotein of about 350 amino acids; term covers its recombinant forms and analogs | 38 pg/ml/hr/receptor molecule | 0.1 | 0.0167 | – | –
2 | B1 | – | – | – | 3.5 | not significantly changed
